Assay results: the supplement of paper PMC9732359
± gives the uncertainty stated by the source.

Test: protein stability index of a GFP-peptide fusion (yeast GPS) (PSI 1-4); higher = more stable; sorted into four equal gates, so the index is relative within each strain
Method in brief: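 For each peptide, the protein stability index sums the read frequency in every gate after multiplying it by the gate number. Read frequencies came from plasmids that were PCR-amplified from each gate and Illumina-sequenced, with reads assigned to strains by barcodes. The gates were four equal bins of GFP/Cherry fluorescence ratio applied to mid-log yeast in leucine-free medium carrying a pooled library of tiled 17-residue yeast protein peptides fused downstream of GFP on a Cherry-expressing plasmid.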

Sequence | protein stability index (doa10∆) | protein stability index (pdr5∆) | protein stability index (san1∆) | protein stability index (ubr1∆)
PAELDLRGSLLSRKPSD [RPC82] | 2.9 ± 0.13 | 3.38 ± 0.12 | 3.11 ± 0.099 | 3.19 ± 0.078
ELKTRDATNTSYKMIQL [SWP82] | 3.39 ± 0.1 | 3.5 ± 0.078 | 3.16 ± 0.059 | 3.29 ± 0.047
IHNTKLPAYSGEIGDFF [POP1] | 3.07 ± 0.06 | 3.1 ± 0.062 | 3.1 ± 0.047 | 3.02 ± 0.06
FEEDEKNSDVWFLDHNY [RPN8] | 2.7 ± 0.077 | 1.73 ± 0.073 | 1.5 ± 0.14 | 1.48 ± 0.084
GKIVGFDEFMNVVIDEA [SME1] | 3.26 ± 0.063 | 3.33 ± 0.064 | 3.36 ± 0.056 | 3.39 ± 0.05
KIFTPNLLQISAAELER [SNF5] | 1.77 ± 0.064 | 1.97 ± 0.061 | 1.76 ± 0.1 | 1.33 ± 0.066
AGNSQITSGGFLLKAYI [SRB5] | 2.11 ± 0.1 | 2.53 ± 0.097 | 2.24 ± 0.17 | 2.92 ± 0.11
GSVIQTHIAESAKEIAK [MCD1] | 2.91 ± 0.09 | 2.89 ± 0.08 | 3 ± 0.048 | 3.06 ± 0.058
KNSRVELQKIYDRHQSS [SMC4] | 3.46 ± 0.098 | 3.01 ± 0.15 | 3.37 ± 0.11 | 3.14 ± 0.11
LKGLNGFPSAPQPLFME [YMR153W/NUP53] | 2.53 ± 0.067 | 3.04 ± 0.066 | 2.85 ± 0.067 | 2.69 ± 0.062
VQNLRSWETKLKQNILE [CSN9] | 1.83 ± 0.077 | 2.04 ± 0.094 | 2.3 ± 0.11 | 1.82 ± 0.083
VEKNEIGKMYDEYLGSH [NNF1] | 3.38 ± 0.17 | 3.3 ± 0.15 | 3.28 ± 0.12 | 3.18 ± 0.086
NTSAIQETASPLSQDEL [YIL149C/MLP2] | 1.23 ± 0.09 | 1.39 ± 0.091 | 1.19 ± 0.17 | 1.25 ± 0.077
KRAFTKKVASANATAAE [RPL16A] | 2.73 ± 0.068 | 2.69 ± 0.06 | 2.82 ± 0.04 | 2.55 ± 0.037
AFGGLNFGGGNNTTPSS [YJL041W/NSP1] | 1.32 ± 0.061 | 1.29 ± 0.064 | 1.46 ± 0.087 | 1.21 ± 0.13
RENNFRVASDTVHEMEE [SMC4] |  | 3.36 ± 0.28 | 3.19 ± 0.13 | 2.95 ± 0.27
TGEAQVDNSPTTESNSR [YLR335W/NUP2] | 2.98 ± 0.086 | 2.83 ± 0.09 | 2.59 ± 0.13 | 3.06 ± 0.092
LTKKKNEEINKKSLEED [SEM1] |  | 3.31 ± 0.11 | 2.77 ± 0.18 | 
HGLKQLRDSLADKIVDE [NUT2] | 3.11 ± 0.083 | 2.13 ± 0.077 | 1.52 ± 0.071 | 2.3 ± 0.055
ENHNGQSISNENDVKPI [SWI3] | 2.07 ± 0.054 | 1.83 ± 0.051 | 2.48 ± 0.069 | 2.48 ± 0.045
AASFKKLYKTPIPIPAF [PRE10] | 2.54 ± 0.14 | 3.15 ± 0.12 | 2.75 ± 0.079 | 3 ± 0.12
SKNMSKSPSLTAQKYPI [YMR153W/NUP53] | 2.46 ± 0.051 | 2.46 ± 0.044 | 2.48 ± 0.055 | 2.51 ± 0.043
QHGFEVQVGPMKVFVTK [RPB7] | 2.26 ± 0.065 | 2.41 ± 0.079 | 2.43 ± 0.089 | 2.52 ± 0.09
NILIASLMDTLITPAVR [YCG1] | 1.41 ± 0.063 | 1.91 ± 0.073 | 1.58 ± 0.13 | 1.78 ± 0.055
VILGADSRTTTGAYIAN [PRE3] | 2.72 ± 0.13 | 3.41 ± 0.11 | 3.12 ± 0.16 | 2.81 ± 0.13
NNIIAEGIEKMGVRTFS [FAS2] | 2.7 ± 0.22 |  | 2.23 ± 0.12 | 2.69 ± 0.12
